Experimental findings from patent US20110172153A1 are described below.

In one test the target is rat parathyroid hormone receptor (PTHR) (UniProt P25961). Put plainly: competition binding; R0 conformation.
rat parathyroid hormone receptor (PTHR), sequence (P25961 27-591): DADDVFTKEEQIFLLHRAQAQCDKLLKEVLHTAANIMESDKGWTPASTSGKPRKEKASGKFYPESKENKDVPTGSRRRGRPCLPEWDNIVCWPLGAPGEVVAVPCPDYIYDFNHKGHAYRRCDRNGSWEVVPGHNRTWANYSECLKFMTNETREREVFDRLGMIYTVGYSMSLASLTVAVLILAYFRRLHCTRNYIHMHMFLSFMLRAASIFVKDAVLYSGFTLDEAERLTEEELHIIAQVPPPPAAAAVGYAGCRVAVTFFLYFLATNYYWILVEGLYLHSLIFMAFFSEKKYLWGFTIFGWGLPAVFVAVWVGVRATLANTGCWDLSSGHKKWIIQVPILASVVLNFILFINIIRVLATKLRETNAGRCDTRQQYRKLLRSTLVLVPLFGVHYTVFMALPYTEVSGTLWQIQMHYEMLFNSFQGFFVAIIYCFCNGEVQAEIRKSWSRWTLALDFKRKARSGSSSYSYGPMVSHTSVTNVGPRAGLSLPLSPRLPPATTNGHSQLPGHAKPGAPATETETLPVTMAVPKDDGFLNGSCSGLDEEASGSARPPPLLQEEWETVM
Substance H5,E19,Mc-hPTH(1-34)OH showed an IC50 of 1390 nM.

For the substance Mc-PTH(1-14)/PTHrP(15-36)OH, the half-inhibitory concentration (IC50) stood at 1.3 nM.

Take H5,Mc-hPTH(1-34)OH: the IC50 came to 26 nM.

[A^23,E^19],Mc-hPTH(1-34)OH displayed an IC50 of 20.3 nM.

Take H5,E19,Mc-hPTH(1-14)/rP(15-36)OH: the IC50 was found to be 197 nM.

As to Mc-hPTH(1-34)OH, the IC50 was determined as 1.9 nM.

In the case of [I^5]-PTHrP(1-36), the IC50 stood at 2.3 nM.

In the case of Mc-PTH(1-18)/PTHrP(19-36)OH, the IC50 is 1.4 nM.

In turn, H5,Mc-hPTH(1-14)/rP(15-36)OH came in with an IC50 of 9 nM.

In turn, hPTHrP(1-36) registered an IC50 of 20 nM.

In the case of Mc-PTH(1-11)/PTHrP(12-36)OH, the half-inhibitory concentration (IC50) amounted to 1.8 nM.

[E^19],Mc-hPTH(1-34)OH: the IC50 turned out to be 2.33 nM.

For the next test the target is unchanged. In words: competition binding; RG conformation.
H5,E19,Mc-hPTH(1-34)OH had a concentration for half-maximal inhibition (IC50) of 1.41 nM.

For the substance Mc-PTH(1-14)/PTHrP(15-36)OH, the half-inhibitory concentration (IC50) is 0.81 nM.

Take H5,Mc-hPTH(1-34)OH: the IC50 stood at 0.32 nM.

The substance [A^23,E^19],Mc-hPTH(1-34)OH had an IC50 of 0.49 nM.

Regarding H5,E19,Mc-hPTH(1-14)/rP(15-36)OH, the IC50 amounted to 4.8 nM.

As for Mc-hPTH(1-34)OH, the half-inhibitory concentration (IC50) came to 0.56 nM.

With [I^5]-PTHrP(1-36), the IC50 is 1.02 nM.

Mc-PTH(1-18)/PTHrP(19-36)OH came in with an IC50 of 0.82 nM.

H5,Mc-hPTH(1-14)/rP(15-36)OH showed an IC50 of 1.7 nM.

Turning to hPTHrP(1-36), the 50% inhibitory concentration (IC50) was 0.44 nM.

In the case of Mc-PTH(1-11)/PTHrP(12-36)OH, the concentration for half-maximal inhibition (IC50) came to 0.73 nM.

Substance [E^19],Mc-hPTH(1-34)OH showed an IC50 of 0.57 nM.
